{
  "source": "the supplement of paper PMC9112550",
  "about": "“Optimization of the antimicrobial peptide Bac7 by deep mutational scanning” (BMC Biology, 2022);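 further: peptides expressed intracellularly from a pBAD plasmid library in pooled LB shake-flask culture, induced with 0.3% L-arabinose, DNA abundance read by NGS, three biological replicates, DESeq2 with apeglm shrinkage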",
  "data": [
    {"test_system": "Escherichia coli TOP10", "assay": "shrunken log2 fold change of peptide-encoding DNA abundance (4.5 h post-induction vs induction); higher = less antimicrobial activity (less host growth inhibition)", "settings": "time post-induction: 4.5 h; library: site-saturation at positions 5, 18, 19, 20", "values": [
      {"sequence": "RRIRWRPPRLPRPRPRPCFRPRP", "shrunken log2 fold change": 0.021},
      {"sequence": "RRIRPRPPRLPRPRPRPTMGPRP", "shrunken log2 fold change": 0.0476},
      {"sequence": "RRIRKRPPRLPRPRPRPTMPPRP", "shrunken log2 fold change": 0.282},
      {"sequence": "RRIRCRPPRLPRPRPRPRMWPRP", "shrunken log2 fold change": 0.0419},
      {"sequence": "RRIRKRPPRLPRPRPRPCEQPRP", "shrunken log2 fold change": 0.324},
      {"sequence": "RRIRVRPPRLPRPRPRPACIPRP", "shrunken log2 fold change": -0.0537},
      {"sequence": "RRIRARPPRLPRPRPRPFDMPRP", "shrunken log2 fold change": 0.0608},
      {"sequence": "RRIRIRPPRLPRPRPRPYPLPRP", "shrunken log2 fold change": -0.176},
      {"sequence": "RRIRPRPPRLPRPRPRPQENPRP", "shrunken log2 fold change": -0.125},
      {"sequence": "RRIRARPPRLPRPRPRPNPGPRP", "shrunken log2 fold change": 0.462},
      {"sequence": "RRIRWRPPRLPRPRPRPTFLPRP", "shrunken log2 fold change": 0.146},
      {"sequence": "RRIRLRPPRLPRPRPRPDKNPRP", "shrunken log2 fold change": -0.0881},
      {"sequence": "RRIRMRPPRLPRPRPRPYWYPRP", "shrunken log2 fold change": -0.0684},
      {"sequence": "RRIRERPPRLPRPRPRPAGTPRP", "shrunken log2 fold change": 0.346},
      {"sequence": "RRIRERPPRLPRPRPRPWYWPRP", "shrunken log2 fold change": 0.0516},
      {"sequence": "RRIRNRPPRLPRPRPRPNEYPRP", "shrunken log2 fold change": -0.312},
      {"sequence": "RRIRNRPPRLPRPRPRPFSTPRP", "shrunken log2 fold change": -0.226},
      {"sequence": "RRIRYRPPRLPRPRPRPYFQPRP", "shrunken log2 fold change": -1.6},
      {"sequence": "RRIRPRPPRLPRPRPRPSRHPRP", "shrunken log2 fold change": -0.0917},
      {"sequence": "RRIRFRPPRLPRPRPRPCFCPRP", "shrunken log2 fold change": -0.453},
      {"sequence": "RRIRCRPPRLPRPRPRPYACPRP", "shrunken log2 fold change": -0.0609},
      {"sequence": "RRIRPRPPRLPRPRPRPCCYPRP", "shrunken log2 fold change": -0.47},
      {"sequence": "RRIRSRPPRLPRPRPRPFHSPRP", "shrunken log2 fold change": -0.0807},
      {"sequence": "RRIRNRPPRLPRPRPRPLRKPRP", "shrunken log2 fold change": -0.099},
      {"sequence": "RRIRLRPPRLPRPRPRPEGWPRP", "shrunken log2 fold change": 0.862},
      {"sequence": "RRIRIRPPRLPRPRPRPWNTPRP", "shrunken log2 fold change": -0.256},
      {"sequence": "RRIRERPPRLPRPRPRPNKFPRP", "shrunken log2 fold change": -0.143},
      {"sequence": "RRIRPRPPRLPRPRPRPSEQPRP", "shrunken log2 fold change": -0.233},
      {"sequence": "RRIRCRPPRLPRPRPRPMWGPRP", "shrunken log2 fold change": -0.214},
      {"sequence": "RRIRARPPRLPRPRPRPGTPPRP", "shrunken log2 fold change": 0.642},
      {"sequence": "RRIRPRPPRLPRPRPRPEFKPRP", "shrunken log2 fold change": 0.26},
      {"sequence": "RRIRSRPPRLPRPRPRPLKWPRP", "shrunken log2 fold change": 0.0381},
      {"sequence": "RRIRNRPPRLPRPRPRPDMYPRP", "shrunken log2 fold change": -0.00473},
      {"sequence": "RRIRRRPPRLPRPRPRPYRRPRP", "shrunken log2 fold change": 0.0385},
      {"sequence": "RRIRQRPPRLPRPRPRPMKDPRP", "shrunken log2 fold change": -0.447},
      {"sequence": "RRIRCRPPRLPRPRPRPHAAPRP", "shrunken log2 fold change": 0.31},
      {"sequence": "RRIRCRPPRLPRPRPRPVEKPRP", "shrunken log2 fold change": 0.551},
      {"sequence": "RRIRRRPPRLPRPRPRPRKNPRP", "shrunken log2 fold change": 0.179},
      {"sequence": "RRIRNRPPRLPRPRPRPHWWPRP", "shrunken log2 fold change": 0.127},
      {"sequence": "RRIRMRPPRLPRPRPRPCNKPRP", "shrunken log2 fold change": -0.372},
      {"sequence": "RRIRIRPPRLPRPRPRPEYQPRP", "shrunken log2 fold change": 0.00783},
      {"sequence": "RRIRYRPPRLPRPRPRPIHLPRP", "shrunken log2 fold change": -1.26},
      {"sequence": "RRIRWRPPRLPRPRPRPPIEPRP", "shrunken log2 fold change": 0.702},
      {"sequence": "RRIRCRPPRLPRPRPRPYSQPRP", "shrunken log2 fold change": -0.781},
      {"sequence": "RRIRARPPRLPRPRPRPAQYPRP", "shrunken log2 fold change": 0.175},
      {"sequence": "RRIRDRPPRLPRPRPRPVYTPRP", "shrunken log2 fold change": -0.0405},
      {"sequence": "RRIRYRPPRLPRPRPRPALAPRP", "shrunken log2 fold change": 0.194},
      {"sequence": "RRIRSRPPRLPRPRPRPAGHPRP", "shrunken log2 fold change": -0.794},
      {"sequence": "RRIRARPPRLPRPRPRPSMLPRP", "shrunken log2 fold change": 0.0741},
      {"sequence": "RRIRFRPPRLPRPRPRPHDKPRP", "shrunken log2 fold change": -0.00198},
      {"sequence": "RRIRVRPPRLPRPRPRPAAYPRP", "shrunken log2 fold change": 0.00526},
      {"sequence": "RRIRCRPPRLPRPRPRPCPMPRP", "shrunken log2 fold change": "-8.18e-06"},
      {"sequence": "RRIRTRPPRLPRPRPRPGRVPRP", "shrunken log2 fold change": 0.744},
      {"sequence": "RRIRGRPPRLPRPRPRPFAEPRP", "shrunken log2 fold change": 2.46},
      {"sequence": "RRIRNRPPRLPRPRPRPSQGPRP", "shrunken log2 fold change": -0.154},
      {"sequence": "RRIRGRPPRLPRPRPRPTNLPRP", "shrunken log2 fold change": -0.0172},
      {"sequence": "RRIRERPPRLPRPRPRPPHKPRP", "shrunken log2 fold change": 0.0221},
      {"sequence": "RRIRDRPPRLPRPRPRPEQYPRP", "shrunken log2 fold change": 0.215},
      {"sequence": "RRIRNRPPRLPRPRPRPRGPPRP", "shrunken log2 fold change": 0.893},
      {"sequence": "RRIRYRPPRLPRPRPRPPHWPRP", "shrunken log2 fold change": 0.203},
      {"sequence": "RRIRTRPPRLPRPRPRPKRCPRP", "shrunken log2 fold change": 0.0203},
      {"sequence": "RRIRERPPRLPRPRPRPNPMPRP", "shrunken log2 fold change": -0.211},
      {"sequence": "RRIRVRPPRLPRPRPRPLSLPRP", "shrunken log2 fold change": -0.0403},
      {"sequence": "RRIRKRPPRLPRPRPRPCAWPRP", "shrunken log2 fold change": 0.953},
      {"sequence": "RRIRKRPPRLPRPRPRPIQYPRP", "shrunken log2 fold change": -0.193},
      {"sequence": "RRIRHRPPRLPRPRPRPAYRPRP", "shrunken log2 fold change": -0.00502},
      {"sequence": "RRIRRRPPRLPRPRPRPTKSPRP", "shrunken log2 fold change": 0.226},
      {"sequence": "RRIRERPPRLPRPRPRPRHHPRP", "shrunken log2 fold change": -0.0796},
      {"sequence": "RRIRDRPPRLPRPRPRPGQAPRP", "shrunken log2 fold change": 0.0989},
      {"sequence": "RRIRIRPPRLPRPRPRPLLYPRP", "shrunken log2 fold change": 0.47},
      {"sequence": "RRIRSRPPRLPRPRPRPVVFPRP", "shrunken log2 fold change": 0.11},
      {"sequence": "RRIRDRPPRLPRPRPRPHTDPRP", "shrunken log2 fold change": -0.623},
      {"sequence": "RRIRIRPPRLPRPRPRPNDWPRP", "shrunken log2 fold change": 0.0555},
      {"sequence": "RRIRKRPPRLPRPRPRPTDMPRP", "shrunken log2 fold change": -0.124},
      {"sequence": "RRIRPRPPRLPRPRPRPGHFPRP", "shrunken log2 fold change": 0.0437}
    ]}
  ]
}
